Assay results reported in US20230303674A1 (BETH ISRAEL DEACONESS MEDICAL CENTER, published 2023).
Values belong to the binder of their own block, whether it stands above or below them. Ends that are not written are not given here.

How the values were obtained:
antibody G1 Fab fragment [1] = experiment: Biacore competition: G1 Fab (50 nM) pre-incubated with competing peptide, flowed over human α-CGRP on SA chip
Description: (§1) Y axis represents percentage of binding blocked by the presence of the competing peptide compared with the binding in the absence of the competing peptide.
(§2) All these peptides are amidated at the C-terminus.

antibody G1 Fab fragment [2] = experiment: Biacore competition: G1 Fab (50 nM) pre-incubated 1 h with 10 µM competing peptide, flowed over N-biotinylated human α-CGRP on SA chip
Description: as §1, §2

antibody G1 Fab fragment [3] = experiment: Biacore, 50 nM G1 Fab with 10 µM peptide, over human α-CGRP on chip
Description: as §1, §2

Chain of antibody G1 Fab fragment (VH, as listed by the source, chain 1 of 2): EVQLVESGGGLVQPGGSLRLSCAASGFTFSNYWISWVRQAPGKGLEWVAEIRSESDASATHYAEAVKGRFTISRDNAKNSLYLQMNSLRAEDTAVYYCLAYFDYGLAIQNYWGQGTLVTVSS
Chain of antibody G1 Fab fragment (VL, as listed by the source, chain 2 of 2): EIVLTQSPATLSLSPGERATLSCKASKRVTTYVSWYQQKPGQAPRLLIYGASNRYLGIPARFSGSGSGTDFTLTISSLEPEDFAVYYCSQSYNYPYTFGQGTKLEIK

B1: human α-CGRP 19-37-COOH (peptide)
peptide: SGGVVKNNFVPTNVGSKAF-OH
notes: free C-terminal carboxyl, not amidated; also called 19-37 (not amidated at the C-terminus)
% Binding Blocked (antibody G1 Fab fragment [2]): 83.3%

B2: human α-CGRP 1-36-COOH (peptide)
peptide: ACDTATCVTHRLAGLLSRSGGVVKNNFVPTNVGSKA-OH
modifications: ends and bridges not checked
notes: free C-terminal carboxyl, not amidated; also called 1-36 (not amidated at the C-terminus)
% Binding Blocked (antibody G1 Fab fragment [2]): 40.6%
% of binding blocked (antibody G1 Fab fragment [3]): ~40%

Now from value to binder:

binding result (antibody G1 Fab fragment [1]): no binding (tested: 10 µM)
Binder: ACDTATCVTHRLAGLLSRS-OH (ends and bridges not checked, not amidated) [human α-CGRP 1-19-COOH]

binding result (antibody G1 Fab fragment [1]): no binding (tested: 10 µM)
Binder: ACDTATCVTHRLA-OH (ends and bridges not checked, not amidated) [human α-CGRP 1-13-COOH]
